In series [1] the target is Escherichia coli DNA gyrase (subunit A and subunit B) (Escherichia coli) (UniProt P0AES4). The series is described as follows: cell-based or functional assay.
In series [2] the target is Escherichia coli DNA gyrase (subunit A and subunit B) (Escherichia coli, UniProt P0AES4+P0AES6).
Protocol: Using the purified DGI obtained in Example 4 above, DGI activity, i.e. the inhibiting activity against DNA gyrase activity (supercoiling activity), was measured. Each 5 μl of DNA gyrase subunit A (1U) and subunit B (1U) were each added to a reaction mixture for activity measurement (20 mM Tris-HCl (pH7.5), 20 mM KCl, 4 mM MgCl2, 4 mM spermidine, 1.5 mM ATP, 1 mM DTT, 30 μg/ml t-RNA, 15 μg/ml BSA and 0.1 μg relaxed pBR322 DNA), and DGI (protein concentration 25, 12.5, 6.25, 3.13, 1.56, 0.78 or 0.39 μg/ml) was added thereto for the reaction for 1 hour at 37° C. After stopping the reaction by addition of 3 μl of proteinase K (1 mg/ml) while keeping the temperature at 37° C. for 30 minutes, the reaction mixture was subjected to electrophoresis with 0.8% agarose gel, dyed with a 0.5 μg/ml solution of ethidium bromide and photographed under radiation of the ultraviolet rays. The amount of super-coiled DNA was measured with a densitometer (Shimadzu-wavelength flying spot scanner CS-9000, available from Shimadzu Seisakusho Co.). The presence or absence of DNA gyrase-inhibiting activity was assayed by comparing the supercoiled DNA amounts obtained when DGI protein was added, with those obtained when no DGI protein was added.
0.5 μg of pBR322 DNA (the supercoiled type, available from Takara Shuzo Co.) and 1 μl of topoisomerase I (available from Takara Shuzo Co.)(6 U/μl) were added to 20 μl of a reaction liquid (35 mM Tris-HCl (pH 8.0), 72 mM KCl, 5 mM MgCl2, 5 mM DTT, 5 mM spermidine and 0.01% bovine serum albumin) and reacted for 2 hours at 37° C. to prepare relaxed pBR322 DNA. […] As for the enzyme activity, the enzyme amount necessary to convert 50% of the amount of the relaxed plasmid DNA into the supercoiled DNA was expressed as one unit (U).
Series [3] deals with E. coli GI724 (pCA17) strain. The series is described as follows: Microscopic observation of strains expressing a large amount of DGI. In kind it is cell-based, Escherichia coli. As to conditions: tryptophan-induced expression from pCA17.
Another series deals with E. coli GI724 strain. In words: Growth of antisense RNA-expressing strain with tryptophan induction. In kind it is cell-based, Escherichia coli. To be noted: for turbidity OD600 / number of living cells: tryptophan added. The procedure:
An antisense expression vector was prepared by inserting a fragment containing the translation region of dgi gene (a fragment corresponding to the 255th-728th bases of Sequence ID NO:6) into the downstream of tryptophan (trp) promoter of vector plasmid pLEX (available from Invitrogen Co.).
The vector was introduced into E. coli GI724 strain. The antisense RNA-expressing strain thus obtained was cultured under the condition of with or without adding tryptophan, and the change with the lapse of time in the number of living cells and turbidity (OD600) was measured. When expression induction by adding tryptophan was not carried out, the number of living cells and turbidity after 24 hours were increased up to 1×10^9 cfu/ml and 1.0, respectively. […] It has been reported that such abnormality in morphology was also observed when E. coli was treated with a new quinolone gyrase inhibitor (Takeshi Nishino et al., Chemotherapy, vol. 41(s-5), pp. 50-66, 1993). From the above result, it is considered that in E. coli wherein expression of dgi antisense RNA is induced, expression of dgi gene is repressed and the normal growth of bacteria is inhibited. In other words, a medical agent which inhibits the expression of dgi gene is useful as an antimicrobial agent.

Escherichia coli DNA gyrase (subunit A and subunit B), sequence (P0AES4 whole entry, one chain of several): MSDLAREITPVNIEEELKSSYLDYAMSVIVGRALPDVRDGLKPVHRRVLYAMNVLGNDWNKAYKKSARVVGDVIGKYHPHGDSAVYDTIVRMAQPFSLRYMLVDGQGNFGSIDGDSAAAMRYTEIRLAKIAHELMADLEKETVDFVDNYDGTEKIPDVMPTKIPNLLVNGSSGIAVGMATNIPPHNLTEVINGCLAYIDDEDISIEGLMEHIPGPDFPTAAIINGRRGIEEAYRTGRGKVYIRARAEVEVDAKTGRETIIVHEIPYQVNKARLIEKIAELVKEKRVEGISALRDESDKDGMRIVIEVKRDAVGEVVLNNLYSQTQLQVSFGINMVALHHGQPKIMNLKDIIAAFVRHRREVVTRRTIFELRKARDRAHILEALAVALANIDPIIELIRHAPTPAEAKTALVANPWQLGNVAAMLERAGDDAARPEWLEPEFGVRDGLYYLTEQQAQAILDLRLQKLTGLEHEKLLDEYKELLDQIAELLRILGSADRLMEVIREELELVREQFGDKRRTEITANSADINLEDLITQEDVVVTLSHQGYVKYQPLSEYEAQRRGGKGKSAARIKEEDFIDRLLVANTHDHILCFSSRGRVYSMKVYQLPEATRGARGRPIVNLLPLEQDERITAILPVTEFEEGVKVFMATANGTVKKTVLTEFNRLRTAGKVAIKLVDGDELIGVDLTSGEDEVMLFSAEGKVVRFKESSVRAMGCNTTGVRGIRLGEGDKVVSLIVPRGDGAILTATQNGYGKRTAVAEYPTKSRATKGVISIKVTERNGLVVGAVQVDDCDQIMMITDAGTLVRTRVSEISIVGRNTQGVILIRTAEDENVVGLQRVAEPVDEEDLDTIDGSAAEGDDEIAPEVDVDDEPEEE
Escherichia coli DNA gyrase (subunit A and subunit B) (Escherichia coli), sequence (P0AES4 2-875 limits assumed): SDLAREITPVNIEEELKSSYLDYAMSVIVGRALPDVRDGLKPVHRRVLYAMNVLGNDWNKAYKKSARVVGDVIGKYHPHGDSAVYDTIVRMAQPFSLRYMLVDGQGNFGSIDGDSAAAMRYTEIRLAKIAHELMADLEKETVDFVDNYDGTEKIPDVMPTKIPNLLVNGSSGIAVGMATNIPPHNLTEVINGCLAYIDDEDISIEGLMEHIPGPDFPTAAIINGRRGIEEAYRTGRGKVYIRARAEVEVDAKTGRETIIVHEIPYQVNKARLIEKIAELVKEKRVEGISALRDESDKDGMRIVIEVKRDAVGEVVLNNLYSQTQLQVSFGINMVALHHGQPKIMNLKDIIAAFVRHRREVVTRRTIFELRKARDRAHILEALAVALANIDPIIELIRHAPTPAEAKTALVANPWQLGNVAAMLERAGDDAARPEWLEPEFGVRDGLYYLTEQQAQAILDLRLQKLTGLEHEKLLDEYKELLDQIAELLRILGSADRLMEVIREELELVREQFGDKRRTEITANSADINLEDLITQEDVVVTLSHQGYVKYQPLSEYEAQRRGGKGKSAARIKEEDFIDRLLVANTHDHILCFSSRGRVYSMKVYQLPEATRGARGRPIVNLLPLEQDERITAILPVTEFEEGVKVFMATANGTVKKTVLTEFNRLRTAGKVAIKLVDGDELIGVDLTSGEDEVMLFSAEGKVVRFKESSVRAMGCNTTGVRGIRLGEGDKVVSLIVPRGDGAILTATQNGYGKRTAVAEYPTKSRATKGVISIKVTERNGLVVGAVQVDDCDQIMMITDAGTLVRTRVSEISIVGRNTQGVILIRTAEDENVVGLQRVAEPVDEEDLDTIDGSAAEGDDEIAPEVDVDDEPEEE

Take “DNA gyrase-inhibiting protein (DGI) derived from Escherichia coli (from UniProt B2TYH1 1-157)”: in series [1], the supercoiling activity of DNA gyrase (relaxed pBR322 DNA, agarose gel) came to 8 µg/ml and the supercoiling activity of DNA gyrase (relaxed pBR322 DNA, agarose gel, densitometry) is over 6 µg/ml.

B1: DGI: about 18 kDa Escherichia coli protein inhibiting DNA gyrase supercoiling activity, Sequence ID NO:7 (protein)
chain: MNYEIKQEEKRTVAGFHLVGPWEQTVKKGFEQLMMWVDSKNIVPKEWVAVYYDNPDETPAEKLRCDTVVTVPGYFTLPENSEGVILTEITGGQYAVAVARVVGDDFAKPWYQFFNSLLQDSAYEMLPKPCFEVYLNNGAEDGYWDIEMYVAVQPKHH
modifications: Escherichia coli strain KL16
Consider B1, for which, in series [2] (purified DGI isolated from Fraction No. 32 by Sephadex G-75, relaxed pBR322 DNA, subunit A 1 U, subunit B 1 U), the “concentration perfectly inhibiting the supercoiling activity of DNA gyrase” value came out at 8 µg/mL. For the same molecule, the “concentration completely inhibiting the supercoiling activity of DNA gyrase” value in series [2] (recombinant purified DGI of Example 4, 1 hour at 37° C., tested 25 to 0.39 μg/ml) is at least 6 µg/mL. In addition, the “conversion to supercoiled DNA at concentration lower than 6 μg/ml” value in series [2] (recombinant purified DGI of Example 4, below 6 μg/ml) is “ended in an incomplete state”. For the same molecule, the “morphology of strains expressing a large amount of DGI” value in series [3] is “lank and elongated”.

B2: dgi gene antisense RNA: antisense RNA expressed from pLEX carrying the dgi fragment (255th-728th bases of Sequence ID NO:6) (nucleic acid)
antisense: ATGAACTACGAGATTAAGCAGGAAGAGAAACGTACCGTTGCAGGTTTCCATCTCGTTGGCCCGTGGGAACAGACGGTAAAGAAAGGCTTTGAGCAGTTGATGATGTGGGTAGATAGCAAAAATATTGTGCCGAAGGAGTGGGTTGCTGTCTATTACGACAATCCAGATGAAACACCCGCCGAAAAATTACGCTGCGACACCGTCGTGACGGTGCCGGGTTACTTTACGCTTCCCGAAAACAGTGAGGGCGTCATTCTGACAGAAATTACAGGTGGTCAGTATGCGGTGGCGGTAGCTCGTGTAGTCGGTGATGATTTTGCTAAACCCTGGTATCAGTTCTTTAATAGTCTCTTGCAGGACAGTGCTTATGAAATGTTACCAAAGCCCTGCTTCGAGGTTTATTTGAACAATGGCGCGGAAGATGGGTACTGGGATATCGAAATGTATGTTGCGGTGCAGCCAAAACATCACTAA
modifications: antisense orientation RNA; Escherichia coli strain KL16
For B2, the morphology of bacteria entry in the series on E. coli GI724 strain (antisense RNA-expressing strain) is reported as “elongation of the bacteria was observed”. Moreover, the “turbidity OD600” value in the series on E. coli GI724 strain (8 hours after the addition) is recorded as 0.4; with E. coli GI724 strain (after 24 hours), about 0.5. The results for the “number of living cells” value in the series on E. coli GI724 strain (8 hours after the addition (from 4×10^7 cfu/ml)) and in the series on E. coli GI724 strain (after 24 hours) were 1×10^8 cfu/ml and 5×10^6 cfu/ml, respectively.

These data come from patent US6511816B1, “DNA gyrase-inhibiting proteins” (priority 1996, dated 2003).
